Measured values reported in US20220332804A1 (CSL INNOVATION, published 2022).
Residue numbers refer to the chain shown, from its start.

Assays:
Experiment in all cases: SPR, mAb captured, C2 mutant analyte;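 further: Anti-C2 mAbs captured on goat anti-human IgG Biacore CM5 chips, alanine or serine C2 surface mutants flowed over at 37 °C, double-referenced sensorgrams fitted to a 1:1 binding model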
human C2 V455A = molecular target: T1, human C2 V455A (human, UniProt P06681 21-752)
T1 sequence: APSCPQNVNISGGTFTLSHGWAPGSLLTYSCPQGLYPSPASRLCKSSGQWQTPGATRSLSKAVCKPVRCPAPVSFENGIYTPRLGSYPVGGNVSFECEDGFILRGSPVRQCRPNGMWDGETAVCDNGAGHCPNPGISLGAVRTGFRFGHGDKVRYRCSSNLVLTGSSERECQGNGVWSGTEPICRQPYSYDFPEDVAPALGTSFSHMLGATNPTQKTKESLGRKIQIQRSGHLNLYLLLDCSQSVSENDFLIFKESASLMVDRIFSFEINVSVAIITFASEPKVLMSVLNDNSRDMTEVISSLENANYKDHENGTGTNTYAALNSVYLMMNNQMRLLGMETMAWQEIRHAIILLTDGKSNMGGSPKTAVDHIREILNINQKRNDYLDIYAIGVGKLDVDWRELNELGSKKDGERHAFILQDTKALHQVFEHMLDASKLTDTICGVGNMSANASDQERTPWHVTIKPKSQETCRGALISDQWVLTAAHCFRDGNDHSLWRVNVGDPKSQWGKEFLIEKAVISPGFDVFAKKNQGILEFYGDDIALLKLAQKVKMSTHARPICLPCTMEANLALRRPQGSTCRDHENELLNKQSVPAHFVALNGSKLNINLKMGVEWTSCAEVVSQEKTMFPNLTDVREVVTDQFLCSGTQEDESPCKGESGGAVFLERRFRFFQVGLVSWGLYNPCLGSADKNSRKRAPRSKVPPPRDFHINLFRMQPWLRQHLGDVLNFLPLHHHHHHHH

human C2 Q447A = molecular target: T2, human C2 Q447A (human, UniProt P06681 21-752)
T2 sequence: T1 sequence with Q427A, A435V

human C2 L439A = molecular target: T3, human C2 L439A (human, UniProt P06681 21-752)
T3 sequence: T1 sequence with L419A, A435V

human C2 F689A = molecular target: T4, human C2 F689A (human, UniProt P06681 21-752)
T4 sequence: T1 sequence with A435V, F669A

- Kd (human C2 V455A): 9.8 nM
- Kd (human C2 Q447A): 133 nM
- Kd (human C2 L439A): 1320 nM
- Kd (human C2 F689A): 36.5 nM
B1: RF16-214 (antibody, V domains shown)
VH: EVQLLESGGGLVQPGGSLRLSCAASGFTFSWYQMMWVRQAPGKGLEWVSRIYPSGGGTAYADSVKGRFTISRDNSKNTLYLQMNSLRAEDTAVYYCARDAGYGDNWGQGTLVTVSS
VL: QSALTQPPSVSVSPGQTASITCSGDKLGEKYASWYQQKAGQSPVMVIYQDRKRPSGIPERFSGSNSGNTATLTISGTQAMDEADYYCQAWDTRAVVFGGGTKLTVLG
